The values that follow come from US20150344570A1 (published 2015).

Where a chain is given by its changes, count along the chain named. In names and notes the source's numbering stands.

Experiment [1] has as its target FcγRIIIa extracellular domain with C-terminal His tag (human, UniProt P08637 17-208). The experiment in a line: SPR (Biacore), relative binding activity; GpH7-A5/GpH7-B3/GpL16-k0 = 100. On the technique in general: SPR reads the build-up and loss of mass on a sensor chip optically.
For experiment [2], the target named is T1, FcγRIIa R extracellular domain with C-terminal His tag (human, UniProt P12318 34-217).
T1 construct: extracellular domain; Soluble receptor, R131 allotype; also called FcgRIIa R; FcgRIIaR; not shown: His tag at the C terminus
T1 sequence (looked up): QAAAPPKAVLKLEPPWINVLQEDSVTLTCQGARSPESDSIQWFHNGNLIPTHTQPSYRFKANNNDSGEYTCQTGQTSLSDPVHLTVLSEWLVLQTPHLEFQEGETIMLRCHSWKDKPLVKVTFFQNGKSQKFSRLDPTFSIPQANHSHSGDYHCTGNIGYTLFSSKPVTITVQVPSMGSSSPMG
Description: SPR (Biacore); ratio KD for FcγRIIb / KD for FcγRIIa R. The procedure:
(§1) These antibodies were assessed for the binding activity to each FcγR according to the method described in Reference Example 2.
(§2) Analysis of interaction between objective antibody and the FcγR was carried out using Biacore T100 (GE Healthcare). HBS-EP+ (GE Healthcare) was used as the running buffer, and the measurement temperature was set to 25° C. Chips produced by immobilizing the antigen peptide by the amine coupling method to a Series S Sencor Chip CM5 (GE Healthcare), or alternatively, chips produced by allowing preliminarily biotinylated antigen peptides to interact with and immobilize onto a Series S Sensor Chip SA (certified) (GE Healthcare) were used. Antibodies of interest were captured onto an antigen peptide-immobilized chip, and allowed to interact to each FcγR diluted with running buffer. To regenerate and repeatedly use the chip, the antibodies captured on the chip were washed off by reacting 10 mM glycine-HCl, pH 1.5.

The target in experiment [3] is T2, FcγRIIa H extracellular domain with C-terminal His tag (human, UniProt P12318 34-217).
T2 construct: extracellular domain; Soluble receptor, H131 allotype; also called FcgRIIa H; FcgRIIaH; not shown: His tag at the C terminus
T2 sequence (looked up): T1 sequence (looked up) with R134H
The experiment in a line: SPR (Biacore); ratio KD for FcγRIIb / KD for FcγRIIa H. Here is the method: as §1, §2

FcγRIIIa extracellular domain with C-terminal His tag, sequence (P08637 17-208): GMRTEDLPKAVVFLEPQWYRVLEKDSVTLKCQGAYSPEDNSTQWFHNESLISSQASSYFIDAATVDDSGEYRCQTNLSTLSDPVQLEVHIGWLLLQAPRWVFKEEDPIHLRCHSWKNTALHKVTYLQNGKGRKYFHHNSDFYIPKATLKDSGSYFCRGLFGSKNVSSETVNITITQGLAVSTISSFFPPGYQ

B1: GpH7-A48/GpH7-B3-01-15Y/GpL16-k0 (antibody, human IgG1, kappa)
heavy 1: QVQLVQSGAEVKKPGASVTVSCKASGYTFTDYEMHWIRQPPGEGLEWIGAIDPKTGDTAYSESFQDRVTLTADKSTSTAYMELSSLTSEDTAVYYCTRFYSYTYWGQGTLVTVSSASTKGPSVFPLAPSSKSTSGGTAALGCLVKDYFPEPVTVSWNSGALTSGVHTFPAVLQSSGLYSLSSVVTVPSSSLGTQTYICNVNHKPSNTKVDKKVEPKSCDKTHTCPPCPAPELLGGPSVFLFPPKPKDTLMISRTPEVTCVVVDVSHEDPEVKFNWYVDGVEVHNAKTKPREEQYNSTYRVVSVLTVLHQDWLNGKEYKCKVSNKALRAPIEKTISKAKGQPREPQVYTLPPSRKELTKNQVSLTCLVKGFYPSDIAVEWESNGQPENNYKTTPPVLDSDGSFFLYSKLTVDKSRWQQGNVFSCSVMHEALHNRYTQKSLSLSP
heavy 2: not shown
light: DIVMTQSPLSLPVTPGEPASISCQASESLVHSNRNTYLHWYLQKPGQSPQLLIYKVSNRFSGVPDRFSGSGSGTDFTLKISRVEAEDVGVYYCSQNTHVPPTFGQGTKVEIERTVAAPSVFIFPPSDEQLKSGTASVVCLLNNFYPREAKVQWKVDNALQSGNSQESVTEQDSKDSTYSLSSTLTLSKADYEKHKVYACEVTHQGLSSPVTKSFNRGEC
notes: H1 P329R; H2 L234Y
B1: in experiment [1], the “FcγRIIIa BINDING ACTIVITY” value worked out at 11%.

B2: GpH7-A5/GpH7-HA11/GpL16-k0 (antibody, human IgG1, kappa)
heavy 1: not shown
heavy 2: B1 heavy 1 with S296A, K354D, R433H, K437E
light: B1 light
notes: H2 S298A and P329R
Regarding B2, the “FcγRIIIa BINDING ACTIVITY” value in experiment [1] turned out to be 84%.

B3: GpH7-Kn033/GpH7-Hl033/GpL16-k0 (antibody, human IgG1, kappa)
heavy 1: not shown
heavy 2: not shown
light: B1 light
notes: Anti-glypican-3 IgG1 (G1d, C-terminal Gly-Lys removed) with knobs-into-holes alterations only; also called Kn033/Hl033
With B3, the A/I ratio came out at 4.9 in experiment [2] and 6.2 in experiment [3].

B4: GpH7-A48/GpH7-B3-03-20W/GpL16-k0 (antibody, human IgG1, kappa)
heavy 1: B1 heavy 1
heavy 2: not shown
light: B1 light
notes: H1 P329R; H2 G236W
In the case of B4, the “FcγRIIIa BINDING ACTIVITY” value in experiment [1] came out at 13%.

B5: GpH7-A5/GpH7-HA5/GpL16-k0 (antibody, human IgG1, kappa)
heavy 1: not shown
heavy 2: B1 heavy 1 with L232Y, K354D, R433H, K437E
light: B1 light
notes: H2 L234Y and P329R
As for B5, the “FcγRIIIa BINDING ACTIVITY” value in experiment [1] was 60%.

B6: GpH7-A5/GpH7-HA6/GpL16-k0 (antibody, human IgG1, kappa)
heavy 1: not shown
heavy 2: B1 heavy 1 with G234W, K354D, R433H, K437E
light: B1 light
notes: H2 G236W and P329R
Turning to B6, in experiment [1], the “FcγRIIIa BINDING ACTIVITY” value was found to be 56%.

B7: GpH7-A48/GpH7-B3-15-02A/GpL16-k0 (antibody, human IgG1, kappa)
heavy 1: B1 heavy 1
heavy 2: not shown
light: B1 light
notes: H1 P329R; H2 S298A
Turning to B7, the “FcγRIIIa BINDING ACTIVITY” value in experiment [1] was found to be 47%.

B8: GpH7-Kn032/GpH7-Hl032/GpL16-k0 (antibody, human IgG1, kappa)
heavy 1: B1 heavy 1 with S237D, R327P, A328L, I330E, Y347C, K354D, T364W, R433H
heavy 2: B1 heavy 1 with S237D, R327P, A328L, I330E, K354C, T364S, L366A, Y405V, R433H
light: B1 light
notes: Anti-glypican-3 IgG1, knobs-into-holes; both H chains carry S239D/A330L/I332E; also called Kn032/Hl032
B8: the A/I ratio amounted to 1.8 in experiment [2] and 0.93 in experiment [3].

B9: GpH7-Kn056/GpH7-Hl055/GpL16-k0 (antibody, human IgG1, kappa)
heavy 1: QVQLVQSGAEVKKPGASVTVSCKASGYTFTDYEMHWIRQPPGEGLEWIGAIDPKTGDTAYSESFQDRVTLTADKSTSTAYMELSSLTSEDTAVYYCTRFYSYTYWGQGTLVTVSSASTKGPSVFPLAPSSKSTSGGTAALGCLVKDYFPEPVTVSWNSGALTSGVHTFPAVLQSSGLYSLSSVVTVPSSSLGTQTYICNVNHKPSNTKVDKKVEPKSCDKTHTCPPCPAPEYYAGPSVFLFPPKPKDTLMISRTPEVTCVVVDVSDEDPEVKFNWYVDGVEVHNAKTKPREELYNATYRVVSVLTVLHQDWLNGKEYKCKVSNKALPAPIEKTISKAKGQPREPQVCTLPPSRDELTKNQVSLWCLVKGFYPSDIAVEWESNGQPENNYKTTPPVLDSDGSFFLYSKLTVDKSRWQQGNVFSCSVMHEALHNHYTQKSLSLSP
heavy 2: QVQLVQSGAEVKKPGASVTVSCKASGYTFTDYEMHWIRQPPGEGLEWIGAIDPKTGDTAYSESFQDRVTLTADKSTSTAYMELSSLTSEDTAVYYCTRFYSYTYWGQGTLVTVSSASTKGPSVFPLAPSSKSTSGGTAALGCLVKDYFPEPVTVSWNSGALTSGVHTFPAVLQSSGLYSLSSVVTVPSSSLGTQTYICNVNHKPSNTKVDKKVEPKSCDKTHTCPPCPAPELLAGPDVFLFPPKPKDTLMISRTPEVTCVVVDVSHEDPEVKFNWYVDGVEVHNAKTKPREELYNSTYRVVSVLTVLHQDWLNGKEYKCKVSNKALPMPEEKTISKAKGQPREPQVYTLPPSRCELTKNQVSLSCAVKGFYPSDIAVEWESNGQPENNYKTTPPVLDSDGSFFLVSKLTVDKSRWQQGNVFSCSVMHEALHNHYTQKSLSLSP
light: B1 light
notes: Heterodimerized anti-glypican-3 IgG1, knobs-into-holes; also called Kn056/Hl055
B9: the A/I ratio in experiment [2] came to 16; in experiment [3], 8.7.

B10: GpH7-Kn037/GpH7-Hl036/GpL16-k0 (antibody, human IgG1, kappa)
heavy 1: B9 heavy 2 with L293Q, M328A, Y347C, C354D, S364W, A366L, V405Y
heavy 2: B9 heavy 2 with L293Q, M328A
light: B1 light
notes: Anti-glypican-3 IgG1, knobs-into-holes; also called Kn037/Hl036
Take B10: the results for the A/I ratio in experiment [2] and in experiment [3] were 13 and 8.6, respectively.

B11: GpH7-Kn045/GpH7-Hl055/GpL16-k0 (antibody, human IgG1, kappa)
heavy 1: B9 heavy 1 with L293Q
heavy 2: B9 heavy 2
light: B1 light
notes: Heterodimerized anti-glypican-3 IgG1, knobs-into-holes; also called Kn045/Hl055
With B11, the figures for the A/I ratio in experiment [2] and in experiment [3] were 18 and 8.3, respectively.

B12: GpH7-Kn045/GpH7-Hl048/GpL16-k0 (antibody, human IgG1, kappa)
heavy 1: B9 heavy 1 with L293Q
heavy 2: B9 heavy 2 with L293Q, M328K
light: B1 light
notes: Heterodimerized anti-glypican-3 IgG1, knobs-into-holes; also called Kn045/Hl048
With B12, the A/I ratio came to 22 in experiment [2] and 9.5 in experiment [3].
